{"source": "paper doi:10.1101/2023.03.28.534355", "about": "(bioRxiv, 2023)", "key": {"[1]": {"molecular_target": "human Guanylate-Binding Protein 1 (GBP1), full-length, non-farnesylated (human) (UniProt P32455)", "experiment": "SEC-MALS"}, "[2]": {"molecular_target": "human Guanylate-Binding Protein 1 (GBP1), full-length, non-farnesylated (human) (UniProt P32455)", "experiment": "mass photometry"}, "[3]": {"molecular_target": "GBP1 D308S/L309A/P310A (human) (UniProt P32455)", "experiment": "mass photometry"}, "[4]": {"molecular_target": "the molecule itself", "experiment": "mass photometry"}}, "data": [{"molecule": "human Guanylate-Binding Protein 1 (GBP1), full-length, non-farnesylated (from UniProt P32455 1-592) (enzyme)", "values": [{"measurement": "stoichiometry N", "setting": "[1]", "result": 2}, {"measurement": "stoichiometry N", "setting": "[2]", "result": 2}]}, {"molecule": "GBP1 D308S/L309A/P310A (from UniProt P32455 1-592) (enzyme)", "values": [{"measurement": "stoichiometry N", "setting": "[3]", "result": 2}]}, {"molecule": "GBP1 D308S (enzyme) MASEIHMTGPMCLIENTNGRLMANPEALKILSAITQPMVVVAIVGLYRTGKSYLMNKLAGKKKGFSLGSTVQSHTKGIWMWCVPHPKKPGHILVLLDTEGLGDVEKGDNQNDSWIFALAVLLSSTFVYNSIGTINQQAMDQLYYVTELTHRIRSKSSPDENENEVEDSADFVSFFPDFVWTLRDFSLDLEADGQPLTPDEYLTYSLKLKKGTSQKDETFNLPRLCIRKFFPKKKCFVFDRPVHRRKLAQLEKLQDEELDPEFVQQVADFCSYIFSNSKTKTLSGGIQVNGPRLESLVLTYVNAISSGSLPCMENAVLALAQIENSAAVQKAIAHYEQQMGQKVQLPTETLQELLDLHRDSEREAIEVFIRSSFKDVDHLFQKELAAQLEKKRDDFCKQNQEASSDRCSALLQVIFSPLEEEVKAGIYSKPGGYRLFVQKLQDLKKKYYEEPRKGIQAEEILQTYLKSKESMTDAILQTDQTLTEKEKEIEVERVKAESAQASAKMLQEMQRKNEQMMEQKERSYQEHLKQLTEKMENDRVQLLKEQERTLALKLQEQEQLLKEGFQKESRIMKNEIQDLQTKMRRRKACTIS", "values": [{"measurement": "stoichiometry N", "setting": "[4]", "result": 2}]}]}
